Source: paper PMC4010968, “Nap1 stimulates homologous recombination by RAD51 and RAD54 in higher-ordered chromatin containing histone H1” (Scientific Reports, 2014)

T1: Human RAD54 (purified) (human, UniProt Q92698 1-747)
T1 construct: RAD54, human cDNA inserted into pFastBac HTc; purification details are in the Supplementary Methods; also called purified RAD54; source: recombinant human RAD54 baculovirus (pFastBac HTc vector), purified; details in Supplementary Methods
T1 sequence (looked up): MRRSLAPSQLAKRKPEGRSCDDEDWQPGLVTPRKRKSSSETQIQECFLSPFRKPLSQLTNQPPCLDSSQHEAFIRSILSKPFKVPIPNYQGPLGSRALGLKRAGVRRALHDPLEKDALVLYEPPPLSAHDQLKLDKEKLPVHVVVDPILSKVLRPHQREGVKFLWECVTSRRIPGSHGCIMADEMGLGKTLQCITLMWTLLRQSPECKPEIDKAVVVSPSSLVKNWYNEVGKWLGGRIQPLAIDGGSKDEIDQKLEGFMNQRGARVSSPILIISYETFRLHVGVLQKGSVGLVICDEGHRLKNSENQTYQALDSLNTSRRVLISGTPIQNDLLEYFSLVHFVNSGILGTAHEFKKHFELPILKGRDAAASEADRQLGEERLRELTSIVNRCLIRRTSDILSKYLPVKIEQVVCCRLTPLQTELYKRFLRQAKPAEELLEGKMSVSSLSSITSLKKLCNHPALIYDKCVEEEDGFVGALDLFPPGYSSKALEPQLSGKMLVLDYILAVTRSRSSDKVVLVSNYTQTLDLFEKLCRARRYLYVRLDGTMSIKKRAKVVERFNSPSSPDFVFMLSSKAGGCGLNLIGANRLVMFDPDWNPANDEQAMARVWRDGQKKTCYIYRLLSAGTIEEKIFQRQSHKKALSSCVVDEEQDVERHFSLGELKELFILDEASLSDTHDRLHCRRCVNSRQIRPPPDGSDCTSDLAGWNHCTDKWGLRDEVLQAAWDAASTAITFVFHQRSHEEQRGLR


How the values were obtained:
Human RAD54 (purified) [1] = biological target: T1, Human RAD54 (purified); experiment: pull-down; Nap1-conjugated beads with purified RAD51 alone or purified RAD54 alone; SDS-PAGE with Coomassie Brilliant Blue staining; details: both partners purified
Human RAD54 (purified) [2] = biological target: T1, Human RAD54 (purified); experiment: native gel or EMSA; Nap1 or mutant incubated with the indicated amounts of RAD54; 5% native PAGE with Coomassie Brilliant Blue staining; RAD54 alone does not enter the gel; details: both partners purified

| Binder | binding result (Human RAD54 (purified) [1]) | binding result (Human RAD54 (purified) [2]) |
| --- | --- | --- |
| Human Nap1 (purified, wild type) (natural protein, UniProt P55209 1-391, looked up, Nap1 (histone chaperone, nucleosome assembly protein 1), human; also called purified Nap1; wild type Nap1) MADIDNKEQSELDQDLDDVEEVEEEETGEETKLKARQLTVQMMQNPQILAALQERLDGLVETPTGYIESLPRVVKRRVNALKNLQVKCAQIEAKFYEEVHDLERKYAVLYQPLFDKRFEIINAIYEPTEEECEWKPDEEDEISEELKEKAKIEDEKKDEEKEDPKGIPEFWLTVFKNVDLLSDMVQEHDEPILKHLKDIKVKFSDAGQPMSFVLEFHFEPNEYFTNEVLTKTYRMRSEPDDSDPFSFDGPEIMGCTGCQIDWKKGKNVTLKTIKKKQKHKGRGTVRTVTKTVSNDSFFNFFAPPEVPESGDLDDDAEAILAADFEIGHFLRERIIPRSVLYFTGEAIEDDDDDYDEEGEEADEEGEEEGDEENDPDYDPKKDQNPAECKQQ | binds | – |
| Nap1(E215,219,222,227K) mutant (natural protein, human, UniProt P55209 1-391, looked up, Nap1, human, with Glu215, Glu219, Glu222 and Glu227 replaced by Lys; A trace amount of a read-through product was present as a contaminant in the purified fraction; also called Nap1(E215K,E219K,E222K,E227K) mutant; Nap1 mutant) MADIDNKEQSELDQDLDDVEEVEEEETGEETKLKARQLTVQMMQNPQILAALQERLDGLVETPTGYIESLPRVVKRRVNALKNLQVKCAQIEAKFYEEVHDLERKYAVLYQPLFDKRFEIINAIYEPTEEECEWKPDEEDEISEELKEKAKIEDEKKDEEKEDPKGIPEFWLTVFKNVDLLSDMVQEHDEPILKHLKDIKVKFSDAGQPMSFVLKFHFKPNKYFTNKVLTKTYRMRSEPDDSDPFSFDGPEIMGCTGCQIDWKKGKNVTLKTIKKKQKHKGRGTVRTVTKTVSNDSFFNFFAPPEVPESGDLDDDAEAILAADFEIGHFLRERIIPRSVLYFTGEAIEDDDDDYDEEGEEADEEGEEEGDEENDPDYDPKKDQNPAECKQQ | – | binds |
